PMC3499988 (Biochemistry, 2011)
Where two headings read alike, the source gives them in different places.

Tests used:
Assay in all cases: SPR
HIV-1 YU-2 gp120 [1] = molecular target: T1, HIV-1 YU-2 gp120 (HIV-1 (YU-2), UniProt P35961)
HIV-1 YU-2 gp120 [2] = molecular target: T1, HIV-1 YU-2 gp120; remark: listed apart in the source
HIV-1 YU-2 gp120 [3] = molecular target: T1, HIV-1 YU-2 gp120; remark: listed apart in the source

| Binder | IC50 (HIV-1 YU-2 gp120 [1]) [nM] | IC50 (HIV-1 YU-2 gp120 [2]) [nM] | Kd (HIV-1 YU-2 gp120 [3]) [nM] | koff (HIV-1 YU-2 gp120 [3]) [s⁻¹] | kon (HIV-1 YU-2 gp120 [3]) [M⁻¹ s⁻¹] |
| --- | --- | --- | --- | --- | --- |
| Fab m18 N30A (HCDR1) (Fab, V domains shown) VH: VQLLESGPGVVKPSETLSLTCTVSGASVANYYWTWVRQPPGKGLEWIGNVYDSGDTNYNPSLSSRLSLSMDTSKNQFSLRLSSVTAADTATYYCARYHRHFIRGPLSFDYWGRGTLVTVSS VL: LQMTQSPSFLSASVGDRVSITCRASQDIQKFLAWYQLTPGDAPKLLMYSASTLQSGVPSRFSGSGSGTEFTLTISGLQPEDFATYYCQHLKRYPYTFGQGTKLEIS | > 1000 | > 1000 | 40.9 | 0.0017 ± 0.3 | 40000 ± 0.4 |
| Fab m18 T53A (LCDR2) (Fab, V domains shown) VH: VQLLESGPGVVKPSETLSLTCTVSGASVNNYYWTWVRQPPGKGLEWIGNVYDSGDTNYNPSLSSRLSLSMDTSKNQFSLRLSSVTAADTATYYCARYHRHFIRGPLSFDYWGRGTLVTVSS VL: LQMTQSPSFLSASVGDRVSITCRASQDIQKFLAWYQLTPGDAPKLLMYSASALQSGVPSRFSGSGSGTEFTLTISGLQPEDFATYYCQHLKRYPYTFGQGTKLEIS | > 500 | > 500 | 35.2 | 0.00071 ± 7 | 20000 ± 2.1 |
| Fab m18 Y102A (HCDR3) (Fab, V domains shown) VH: VQLLESGPGVVKPSETLSLTCTVSGASVNNYYWTWVRQPPGKGLEWIGNVYDSGDTNYNPSLSSRLSLSMDTSKNQFSLRLSSVTAADTATYYCARYHRHFIRGPLSFDAWGRGTLVTVSS VL: LQMTQSPSFLSASVGDRVSITCRASQDIQKFLAWYQLTPGDAPKLLMYSASTLQSGVPSRFSGSGSGTEFTLTISGLQPEDFATYYCQHLKRYPYTFGQGTKLEIS | > 1000 | > 1000 | 31.5 | 0.0012 ± 0.4 | 37000 ± 1.4 |
| Fab m18 N31A (HCDR1) (Fab, V domains shown) VH: VQLLESGPGVVKPSETLSLTCTVSGASVNAYYWTWVRQPPGKGLEWIGNVYDSGDTNYNPSLSSRLSLSMDTSKNQFSLRLSSVTAADTATYYCARYHRHFIRGPLSFDYWGRGTLVTVSS VL: LQMTQSPSFLSASVGDRVSITCRASQDIQKFLAWYQLTPGDAPKLLMYSASTLQSGVPSRFSGSGSGTEFTLTISGLQPEDFATYYCQHLKRYPYTFGQGTKLEIS | > 1000 | > 1000 | 25.9 | 0.0013 ± 0.5 | 51000 ± 1 |
| Fab m18 K31R (LCDR1) (Fab, V domains shown) VH: VQLLESGPGVVKPSETLSLTCTVSGASVNNYYWTWVRQPPGKGLEWIGNVYDSGDTNYNPSLSSRLSLSMDTSKNQFSLRLSSVTAADTATYYCARYHRHFIRGPLSFDYWGRGTLVTVSS VL: LQMTQSPSFLSASVGDRVSITCRASQDIQRFLAWYQLTPGDAPKLLMYSASTLQSGVPSRFSGSGSGTEFTLTISGLQPEDFATYYCQHLKRYPYTFGQGTKLEIS | > 1000 | > 1000 | 34.7 | 0.0011 ± 0.2 | 31000 ± 1.2 |
| Fab m18 P95A (LCDR3) (Fab, V domains shown) VH: VQLLESGPGVVKPSETLSLTCTVSGASVNNYYWTWVRQPPGKGLEWIGNVYDSGDTNYNPSLSSRLSLSMDTSKNQFSLRLSSVTAADTATYYCARYHRHFIRGPLSFDYWGRGTLVTVSS VL: LQMTQSPSFLSASVGDRVSITCRASQDIQKFLAWYQLTPGDAPKLLMYSASTLQSGVPSRFSGSGSGTEFTLTISGLQPEDFATYYCQHLKRYAYTFGQGTKLEIS | > 1000 | > 1000 | 35.5 | 0.0019 ± 0.3 | 53000 ± 1.6 |
| Fab m18 Q27A (LCDR1) (Fab, V domains shown) VH: VQLLESGPGVVKPSETLSLTCTVSGASVNNYYWTWVRQPPGKGLEWIGNVYDSGDTNYNPSLSSRLSLSMDTSKNQFSLRLSSVTAADTATYYCARYHRHFIRGPLSFDYWGRGTLVTVSS VL: LQMTQSPSFLSASVGDRVSITCRASADIQKFLAWYQLTPGDAPKLLMYSASTLQSGVPSRFSGSGSGTEFTLTISGLQPEDFATYYCQHLKRYPYTFGQGTKLEIS | 49.6 ± 3.1 | 54.5 ± 3.5 | 6.7 | 0.00049 ± 3.9 | 72000 ± 2.9 |
| Fab m18 S56A (LCDR2) (Fab, V domains shown) VH: VQLLESGPGVVKPSETLSLTCTVSGASVNNYYWTWVRQPPGKGLEWIGNVYDSGDTNYNPSLSSRLSLSMDTSKNQFSLRLSSVTAADTATYYCARYHRHFIRGPLSFDYWGRGTLVTVSS VL: LQMTQSPSFLSASVGDRVSITCRASQDIQKFLAWYQLTPGDAPKLLMYSASTLQAGVPSRFSGSGSGTEFTLTISGLQPEDFATYYCQHLKRYPYTFGQGTKLEIS | > 500 | > 500 | 25.7 | 0.00066 ± 1.4 | 28000 ± 0.7 |
| Fab m18 Q30A (LCDR1) (Fab, V domains shown) VH: VQLLESGPGVVKPSETLSLTCTVSGASVNNYYWTWVRQPPGKGLEWIGNVYDSGDTNYNPSLSSRLSLSMDTSKNQFSLRLSSVTAADTATYYCARYHRHFIRGPLSFDYWGRGTLVTVSS VL: LQMTQSPSFLSASVGDRVSITCRASQDIAKFLAWYQLTPGDAPKLLMYSASTLQSGVPSRFSGSGSGTEFTLTISGLQPEDFATYYCQHLKRYPYTFGQGTKLEIS | 80.3 ± 16.7 | 129 ± 5 | 1.4 | 0.00012 ± 0.1 | 91000 ± 0.1 |
| Fab m18 R100aE (HCDR3) (Fab, V domains shown) VH: VQLLESGPGVVKPSETLSLTCTVSGASVNNYYWTWVRQPPGKGLEWIGNVYDSGDTNYNPSLSSRLSLSMDTSKNQFSLRLSSVTAADTATYYCARYHRHFIEGPLSFDYWGRGTLVTVSS VL: LQMTQSPSFLSASVGDRVSITCRASQDIQKFLAWYQLTPGDAPKLLMYSASTLQSGVPSRFSGSGSGTEFTLTISGLQPEDFATYYCQHLKRYPYTFGQGTKLEIS | > 1000 | > 1000 | 69.2 | 0.0011 ± 0.7 | 16000 ± 0.6 |
| Fab m18 R24A (LCDR1) (Fab, V domains shown) VH: VQLLESGPGVVKPSETLSLTCTVSGASVNNYYWTWVRQPPGKGLEWIGNVYDSGDTNYNPSLSSRLSLSMDTSKNQFSLRLSSVTAADTATYYCARYHRHFIRGPLSFDYWGRGTLVTVSS VL: LQMTQSPSFLSASVGDRVSITCAASQDIQKFLAWYQLTPGDAPKLLMYSASTLQSGVPSRFSGSGSGTEFTLTISGLQPEDFATYYCQHLKRYPYTFGQGTKLEIS | > 1000 | > 1000 | 16.8 | 0.00039 ± 3.7 | 23000 ± 0.9 |
| Fab m18 D28A (LCDR1) (Fab, V domains shown) VH: VQLLESGPGVVKPSETLSLTCTVSGASVNNYYWTWVRQPPGKGLEWIGNVYDSGDTNYNPSLSSRLSLSMDTSKNQFSLRLSSVTAADTATYYCARYHRHFIRGPLSFDYWGRGTLVTVSS VL: LQMTQSPSFLSASVGDRVSITCRASQAIQKFLAWYQLTPGDAPKLLMYSASTLQSGVPSRFSGSGSGTEFTLTISGLQPEDFATYYCQHLKRYPYTFGQGTKLEIS | 65.5 ± 0.5 | 70.8 ± 1.8 | 0.7 | 1.9e-05 | 28000 ± 3.1 |
| Fab m18 R93A (LCDR3) (Fab, V domains shown) VH: VQLLESGPGVVKPSETLSLTCTVSGASVNNYYWTWVRQPPGKGLEWIGNVYDSGDTNYNPSLSSRLSLSMDTSKNQFSLRLSSVTAADTATYYCARYHRHFIRGPLSFDYWGRGTLVTVSS VL: LQMTQSPSFLSASVGDRVSITCRASQDIQKFLAWYQLTPGDAPKLLMYSASTLQSGVPSRFSGSGSGTEFTLTISGLQPEDFATYYCQHLKAYPYTFGQGTKLEIS | 49.5 ± 20.5 | 78.7 ± 3.2 | 2 | 8e-05 | 39000 ± 0.2 |
